B1: 2.27.16-u1-1-hIgG1L (antibody, V domains shown)
VH: QEQLQESGPGLVKPSQTLSLTCTVSGGSINSQGYYWSWIRQHPGKGLEWIGYIYDSGSAYYNPSLERRVAISLDTSKNQFSLNLNSVTVADTAVYYCARIVAAGRIDPWGQGTLVTVSS
VL: SYVLTQPPSVSVAPGQTARMTCGGDNIGIKIVHWYQQKAGQAPVLVVYDDNDRPSGIPDRFSGSNSGNTATLTISRVAAGDEADYYCQVWDRRSDHVVFGGGTKLTVL
notes: Fully human antibody
B2: 2.27.16-u1-1-hIgG4L (antibody, V domains shown)
VH: QEQLQESGPGLVKPSQTLSLTCTVSGGSINSQGYYWSWIRQHPGKGLEWIGYIYDSGSAYYNPSLERRVAISLDTSKNQFSLNLNSVTVADTAVYYCARIVAAGRIDPWGQGTLVTVSS
VL: SYVLTQPPSVSVAPGQTARMTCGGDNIGIKIVHWYQQKAGQAPVLVVYDDNDRPSGIPDRFSGSNSGNTATLTISRVAAGDEADYYCQVWDRRSDHVVFGGGTKLTVL
B3: 2.19.8-u1-3-hIgG1L (antibody, V domains shown)
VH: QVQLVESGGGLVKPGGSLRLSCAASGFTFSDYFMSWIRQAPGKGLEWVSYISNAGSSKYYADSVKGRFTISRDNAKNSLYLQMNSLRAEDTAVYYCVRDPYSGSYSGWFDPWGQGTLVTVSS
VL: SYDLTQPPSVSVSPGQTASITCSGDDLGDKYTSWYQQKPGQSPVLVVYQDHKRPSGIPERFSGSNSGNTATLTISGTQAMDEADYYCQAWDKGIVVFGGGTKLTVL
notes: Fully human antibody
B4: 2.19.8-u1-3-hIgG4L (antibody, V domains shown)
VH: QVQLVESGGGLVKPGGSLRLSCAASGFTFSDYFMSWIRQAPGKGLEWVSYISNAGSSKYYADSVKGRFTISRDNAKNSLYLQMNSLRAEDTAVYYCVRDPYSGSYSGWFDPWGQGTLVTVSS
VL: SYDLTQPPSVSVSPGQTASITCSGDDLGDKYTSWYQQKPGQSPVLVVYQDHKRPSGIPERFSGSNSGNTATLTISGTQAMDEADYYCQAWDKGIVVFGGGTKLTVL

Legend:
[1] = target: T1, mouse 4-1BB extracellular domain, His tag (mouse, UniProt P20334 24-187); experiment: SPR, Biacore T200; antibody captured on Protein G chip, mouse 4-1BB ECD.His as analyte
T1 construct: extracellular domain; also called mPro1.ECD.His; not shown: His tag
T1 sequence (looked up): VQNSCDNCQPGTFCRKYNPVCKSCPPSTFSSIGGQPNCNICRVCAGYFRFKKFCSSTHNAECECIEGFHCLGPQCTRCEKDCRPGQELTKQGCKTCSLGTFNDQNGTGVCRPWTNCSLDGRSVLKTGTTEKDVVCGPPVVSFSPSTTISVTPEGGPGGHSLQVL
Description: (§1) Antibodies were characterized for affinity and binding kinetics to human, cynomolgus and mouse 4-1BB by SPR assay using Biacore T200 (GE). Protein G was pre-immobilized to a sensor chip (CMS), and anti-4-1BB antibodies were captured when injected to the chip. Various concentrations of human 4-1BB and running buffer were flowed through the sensor chip for an association phase, and followed by dissociation. The association and dissociation curve was analyzed using Biacore T200 Evaluation software Version 2.0.

[2] = target: T2, cynomolgus 4-1BB extracellular domain, His tag (cynomolgus, UniProt A9YYE7 24-186); experiment: SPR, Biacore T200; antibody captured on Protein G chip, cynomolgus 4-1BB ECD.His as analyte
T2 construct: extracellular domain; also called cynoPro1.ECD.His; ACRO-41B-C52H4; not shown: His tag
Description: as §1

[3] = target: T3, mouse 4-1BB, full-length, on cells (mouse, UniProt P20334 24-256); experiment: flow cytometry on murine 4-1BB-expressing CHO-K1 cells, PE goat anti-human IgG Fc, MFI
T3 construct: whole, on cells; also called murine 4-1BB expressing CHO-K1 cells
Description: (§2) Murine 4-1BB-expressing CHO-K1 cells were transferred into 96-well U-bottom plates at a density of 1×10⁵ cells/well. Testing antibodies were serially diluted in PBS containing 1% BSA, and incubated with cells at 4° C. for 1 h. After washing, the secondary antibody, PE labeled Goat anti-human IgG Fc Fragment (Jackson ImmunoResearch), was applied and incubated with cells at 4° C. in the dark for 1 h. The cells were then washed and resuspended in PBS and then analyzed by flow cytometer (BD).

[4] = target: T4, GITR (human, UniProt Q9Y5U5 26-161, limits assumed); experiment: ELISA on plate-coated antigen, HRP goat anti-human IgG Fc, OD450-OD540; antibody concentration not given
T4 sequence (looked up): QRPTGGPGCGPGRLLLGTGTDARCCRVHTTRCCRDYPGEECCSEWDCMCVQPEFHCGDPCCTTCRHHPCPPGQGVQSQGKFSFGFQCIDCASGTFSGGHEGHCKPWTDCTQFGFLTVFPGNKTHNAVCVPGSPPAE
Description: (§3) Cross-reactivity to TNFR family members OX40, CD40 and GITR was determined by ELISA. Plates (Nunc) were coated with OX40, CD40 or GITR overnight at 4° C. After blocking and washing, anti-4-1BB antibodies were added to the plates and incubated at room temperature for 1 h. The plates were then washed and subsequently incubated with secondary antibody, HRP Conjugated Goat anti-human IgG Fc Fragment antibody (Bethyl), for 45 min. After washing, TMB substrate was added and the color reaction was stopped by 2M HCl. The absorbance at 450 and 540 nm were read using a microplate reader (Molecular Device).

[5] = target: T5, OX40 (human, UniProt P43489 29-216, limits assumed); experiment: as above
T5 sequence (looked up): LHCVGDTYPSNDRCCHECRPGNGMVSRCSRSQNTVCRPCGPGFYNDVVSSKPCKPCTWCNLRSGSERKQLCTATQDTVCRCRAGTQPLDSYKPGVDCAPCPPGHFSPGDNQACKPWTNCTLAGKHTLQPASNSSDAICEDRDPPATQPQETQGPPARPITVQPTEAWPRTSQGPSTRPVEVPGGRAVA
Description: as §3

[6] = target: CD40 (human, UniProt P25942 21-193, limits assumed); experiment: as above
Description: as §3

[7] = target: T6, human 4-1BB extracellular domain, His tag (human, UniProt Q07011 24-186); experiment: SPR, Biacore T200; antibody captured on Protein G chip, 4-1BB ECD.His as analyte
T6 construct: also called hPro1.ECD.His; not shown: C-terminal His tag
Description: as §1

[8] = target: T7, human 4-1BB, full-length, on cells (human, UniProt Q07011 24-255); experiment: flow cytometry on human 4-1BB-expressing CHO-K1 cells, PE goat anti-human IgG Fc, MFI
T7 construct: also called human 4-1BB expressing CHO-K1 cells; cell surface 4-1BB
Description: as §2, with “Human” for “Murine”, “Testing antibodies were serially diluted in PBS containing 1% BSA, and incubated with cells at 4° C. for 1 h.” left out, “re-suspended” for “resuspended”, “by a” for “by”

[9] = target: human 4-1BB protein (coated on ELISA plates) (human, UniProt Q07011 24-186, limits assumed); experiment: competition ELISA on plate-coated human 4-1BB; competitor: biotinylated BMK4, detected with streptavidin-HRP, OD450-OD540
Description: Plates were pre-coated with human 4-1BB protein at 4° C. overnight. After blocking, various concentrations of testing antibodies were pre-mixed with biotinylated BMK antibodies and added to the plates. The plates were incubated at ambient temperature for 1 hour. The binding of the BMK antibodies to human 4-1BB was detected by streptavidin-HRP. The color was developed by dispensing TMB substrate, and then stopped by 2N HCl. The absorbance was read at 450 nm and […] using a microplate spectrophotometer.

Row | Binder | Kd [1] | koff [1] | kon [1] | Kd [2] | koff [2] | kon [2] | EC50 (read off the curve) [3] | binding result [4] | binding result [5] | binding result [6] | Kd [7] | koff [7] | kon [7] | EC50 (read off the curve) [8] | IC50 (read off the curve) [9]
1 | B1 | 8.49 nM | 0.00134 s⁻¹ | 158000 M⁻¹ s⁻¹ | 0.142 nM | 3.07e-05 s⁻¹ | 217000 M⁻¹ s⁻¹ | ~0.9 nM | no binding | no binding | no binding | – | – | – | – | –
2 | B2 | 6.27 nM | 0.00136 s⁻¹ | 217000 M⁻¹ s⁻¹ | 0.439 nM | 0.000101 s⁻¹ | 230000 M⁻¹ s⁻¹ | ~0.8 nM | no binding | no binding | no binding | – | – | – | – | –
3 | B3 | 26.1 nM | 0.975 s⁻¹ | 3.73e+07 M⁻¹ s⁻¹ | 0.0164 nM | 2.96e-05 s⁻¹ | 1.81e+06 M⁻¹ s⁻¹ | – | no binding | no binding | no binding | 0.0257 nM | 6.48e-05 s⁻¹ | 2.52e+06 M⁻¹ s⁻¹ | ~0.07 nM | ~0.9 nM
4 | B4 | 18.4 nM | 0.215 s⁻¹ | 1.17e+07 M⁻¹ s⁻¹ | 0.0158 nM | 2.93e-05 s⁻¹ | 1.86e+06 M⁻¹ s⁻¹ | – | no binding | no binding | no binding | 0.0177 nM | 3.74e-05 s⁻¹ | 2.11e+06 M⁻¹ s⁻¹ | ~0.06 nM | ~1 nM
